Tests used:
[1] = molecular target: pIII coat protein of bacteriophage CA1000 (filamentous bacteriophage (helper phage R408 derivative))
[2] = molecular target: pIII coat protein of bacteriophage CA2000 (filamentous bacteriophage (helper phage R408 derivative))
[3] = molecular target: pIII coat protein of bacteriophage TARGETBACK (filamentous bacteriophage (helper phage R408 derivative))
[4] = molecular target: pIII coat protein of bacteriophage CA1051 (filamentous bacteriophage (helper phage R408 derivative))
[5] = molecular target: pIII coat protein of bacteriophage CA2000 (OMP1) (filamentous bacteriophage (helper phage R408 derivative))
[6] = molecular target: pIII coat protein of bacteriophage CA2000 (filamentous bacteriophage (helper phage R408 derivative)); remark: listed apart in the source
[7] = molecular target: pIII coat protein of bacteriophage CA2000 (OMP2) (filamentous bacteriophage (helper phage R408 derivative))

Substance | infective phage particles (OmR transducing units) [1] | infective phage particles (OmR transducing units) [2] | infective phage particles (OmR transducing units) [3] | infective phage particles (OmR transducing units) [4] | infective phage particles (ampicillin resistant transducing units) from OmpT mediated maturation of pIII [5] | infective phage particles (ampicillin resistant transducing units) from OmpT mediated maturation of pIII [6] | infective phage particles (ampicillin resistant transducing units) from OmpT mediated maturation of pIII [7]
host encoded leader peptidase (from UniProt P00803) (enzyme) | 1e+08 OmR T.U./ml | < 50 OmR T.U./ml | 1000 OmR T.U./ml | 30000 OmR T.U./ml | – | – | –
OmpT protease (from UniProt P09169) (enzyme) | – | – | – | – | 2500 ApR T.U./ml | < 50 ApR T.U./ml | 18000 ApR T.U./ml

From patent US5602021
